What was measured:
[1] = target: 5-carboxyfluorescein (5-FAM) labeled LVEALY tracer; test: fluorescence polarisation (Δmp read-out, fluorescent peptide tracer); conditions: 30 µM BAG3P209L; 30 µM BAG3WT; parent: est. 2; read off a plot
[2] = target: BAG3^P209L (recombinant) (human) (UniProt O95817); test: ITC; NBD (100 μM) in the syringe titrated into 10 μM BAG3 in the cell; 25 mM HEPES, 5 mM MgCl2, 100 mM KCl, pH 7.5; 25 °C; one-site binding model
[3] = target: BAG3^WT (recombinant) (human) (UniProt O95817); test: as above
Chain of BAG3^WT (recombinant) (human) (O95817 whole entry): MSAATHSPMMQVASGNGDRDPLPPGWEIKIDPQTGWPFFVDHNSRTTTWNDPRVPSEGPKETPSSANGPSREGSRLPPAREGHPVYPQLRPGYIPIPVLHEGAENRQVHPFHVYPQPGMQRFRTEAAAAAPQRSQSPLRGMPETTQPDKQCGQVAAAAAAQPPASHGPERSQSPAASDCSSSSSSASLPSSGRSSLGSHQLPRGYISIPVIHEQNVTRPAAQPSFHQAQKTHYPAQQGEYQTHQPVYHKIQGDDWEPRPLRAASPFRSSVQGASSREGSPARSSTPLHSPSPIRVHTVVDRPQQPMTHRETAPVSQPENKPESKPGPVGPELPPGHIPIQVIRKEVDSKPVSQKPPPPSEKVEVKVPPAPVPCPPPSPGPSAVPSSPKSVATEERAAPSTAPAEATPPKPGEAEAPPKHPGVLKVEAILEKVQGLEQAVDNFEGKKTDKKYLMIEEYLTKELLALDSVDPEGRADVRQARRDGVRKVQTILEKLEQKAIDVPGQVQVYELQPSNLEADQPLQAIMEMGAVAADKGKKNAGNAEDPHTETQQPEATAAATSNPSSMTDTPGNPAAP

Chain of BAG3^WT (recombinant), O95817 P209L (O95817 whole entry P209L): as the sequence (O95817 whole entry) above, with P209L counted along it
Chain of BAG3^P209L (recombinant) (human) (O95817 whole entry P209L): as the sequence (O95817 whole entry) above, with P209L counted along it

Substance | response [1] | Kd [2] [nM] | Kd [3] [nM]
BAG3^WT (recombinant), O95817 P209L | 54 Δmp | – | –
HSPA8^NBD (nucleotide-binding domain of HSPA8) (domain or fragment) | – | 300 | 300

— article PMC6297355
